# According to patent publication US20240166767A1 (SCIRHOM, published 2024):
# T1: endogenous human iRhom2 (human, UniProt Q6PJF5 1-856)
# T1 sequence: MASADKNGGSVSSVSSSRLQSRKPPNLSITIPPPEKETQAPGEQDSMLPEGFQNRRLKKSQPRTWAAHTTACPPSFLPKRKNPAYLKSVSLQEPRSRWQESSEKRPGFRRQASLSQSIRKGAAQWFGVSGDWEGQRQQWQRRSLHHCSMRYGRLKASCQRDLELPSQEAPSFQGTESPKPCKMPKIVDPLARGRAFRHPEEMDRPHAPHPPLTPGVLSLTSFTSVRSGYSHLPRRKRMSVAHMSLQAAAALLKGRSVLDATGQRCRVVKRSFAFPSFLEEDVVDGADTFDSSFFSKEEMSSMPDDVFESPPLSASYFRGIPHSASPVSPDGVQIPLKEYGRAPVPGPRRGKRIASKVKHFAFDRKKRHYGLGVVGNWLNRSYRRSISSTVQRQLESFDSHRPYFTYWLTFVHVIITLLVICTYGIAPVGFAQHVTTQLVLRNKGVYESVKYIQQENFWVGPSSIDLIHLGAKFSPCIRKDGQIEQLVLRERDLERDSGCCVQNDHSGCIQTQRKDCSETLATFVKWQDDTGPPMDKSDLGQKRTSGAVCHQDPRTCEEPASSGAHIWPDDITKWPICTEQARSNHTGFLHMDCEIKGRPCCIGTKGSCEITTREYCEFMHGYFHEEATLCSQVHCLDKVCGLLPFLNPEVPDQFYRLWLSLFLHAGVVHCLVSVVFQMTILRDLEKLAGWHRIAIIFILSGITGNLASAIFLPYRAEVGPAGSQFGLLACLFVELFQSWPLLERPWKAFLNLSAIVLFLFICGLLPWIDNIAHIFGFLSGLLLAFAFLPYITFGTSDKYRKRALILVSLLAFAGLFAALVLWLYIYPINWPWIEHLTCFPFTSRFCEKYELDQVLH
# T2: dog iRhom1 full length wild type, T7-tagged (dog, UniProt A0A8I3MHT7 11-866)
# T2 construct: whole, on cells; also called Dog-iR1-FL-WT-T7; expressed by MEF-DKO-Dog-iR1-FL-WT-T7 cells
# T2 sequence: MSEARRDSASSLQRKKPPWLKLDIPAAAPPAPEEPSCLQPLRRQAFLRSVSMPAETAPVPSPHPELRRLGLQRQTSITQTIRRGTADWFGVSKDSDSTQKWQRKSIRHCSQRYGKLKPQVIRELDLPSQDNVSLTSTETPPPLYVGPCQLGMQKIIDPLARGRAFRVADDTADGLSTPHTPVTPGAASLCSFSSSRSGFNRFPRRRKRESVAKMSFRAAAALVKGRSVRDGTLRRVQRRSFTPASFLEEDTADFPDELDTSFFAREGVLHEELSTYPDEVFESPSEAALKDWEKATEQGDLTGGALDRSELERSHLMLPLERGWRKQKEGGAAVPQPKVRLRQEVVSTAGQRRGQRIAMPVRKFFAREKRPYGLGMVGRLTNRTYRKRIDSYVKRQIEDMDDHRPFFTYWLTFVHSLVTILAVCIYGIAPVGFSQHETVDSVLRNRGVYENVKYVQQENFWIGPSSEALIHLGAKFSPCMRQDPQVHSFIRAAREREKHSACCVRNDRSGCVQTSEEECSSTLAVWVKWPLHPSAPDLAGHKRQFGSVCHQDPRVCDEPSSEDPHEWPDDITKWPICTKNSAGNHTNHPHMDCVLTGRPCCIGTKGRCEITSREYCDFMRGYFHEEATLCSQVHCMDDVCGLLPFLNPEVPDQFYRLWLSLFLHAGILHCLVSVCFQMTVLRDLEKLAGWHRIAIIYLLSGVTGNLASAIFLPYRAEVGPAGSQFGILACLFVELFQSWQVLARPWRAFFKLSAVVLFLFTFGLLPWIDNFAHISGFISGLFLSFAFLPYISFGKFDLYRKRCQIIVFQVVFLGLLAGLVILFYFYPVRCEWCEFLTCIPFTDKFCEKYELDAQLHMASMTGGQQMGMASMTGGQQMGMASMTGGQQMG
# B1: humanized antibody 16-B-05 (antibody, V domains shown)
# VH: QVTLRESGPALVKPTQTLTLTCTFSGFSLSTFALGVGWIRQPPGKALEWLAHIWWDEDKYYNPALKSRLTISKDTSKNQVVLTITNMDPVDTATYYCARITTYYYGMDYWGQGTLVTVSS
# VL: EIVMTQSPDFQSVTPKEKVTITCRASQSIGNHLHWYQQKPDASPKLLIKYASQSISGVPSRFSGSGSGTDFTLTINSLEAEDAATYFCQQSYNWPLTFGQGTKLEIK
# notes: Tested as whole humanized antibody produced in CHO cells and detected with anti-human IgG; the general methods speak of human IgG1/Kappa; The printed LCVD reads SRESGSG where the printed cDNA encodes SRFSGSG; also called clone 16-B-05
# Experiments:
# endogenous human iRhom2 = target: T1, endogenous human iRhom2; test: cell-based or functional assay
# [1] = target: T2, dog iRhom1 full length wild type, …; test: FACS on MEF-DKO-Dog-iR1-FL-WT-T7 cells
# Experimental: In brief, immortalized MEF-DKO-EV control cells, MEF-DKO-rhesus-iR2-FL-WT-T7 cells, MEF-DKO-cyno-iR2-FL-WT-T7 cells, MEF-DKO-dog-iR2-FL-WT-T7 cells and MEF-DKO-rabbit-iR2-FL-WT-T7 cells, as well as their respective iRhom1 counterparts, were harvested with 10 mM EDTA in PBS, washed and resuspended in FACS buffer (PBS, 3% FBS, 0.05% sodium azide), and seeded in Nunc U-bottom 96-well plates (Thermo Fisher Scientific, USA) at approximately 3×10⁵ cells per well. To pellet cells and remove supernatants, the plates were centrifuged at 1,500 rpm and 4° C. for 3 minutes. For primary staining, cells were resuspended in 100 μl per well of either FACS buffer alone (controls), mouse monoclonal anti-T7 IgG (Merck Millipore, USA) at 3 μg/ml FACS buffer or the antibodies of the invention also at 3 μg/ml FACS buffer and incubated on ice for 1 hour. Afterwards, plates were centrifuged at 1,500 rpm and 4° C. for 3 minutes and washed twice with 200 μl per well of FACS buffer. For secondary staining of previous anti T7 staining, cells were spun down and resuspended in 100 μl per well of PE-conjugated goat anti-mouse IgG F(ab′)2 detection fragment (Dianova, Germany) diluted 1:100 in FACS buffer. For secondary staining of previous staining with humanized antibodies of invention, cells were spun down and resuspended in 100 μl per well of PE-conjugated goat anti-human IgG F(ab′)2 detection fragment (Dianova, Germany) diluted 1:100 in FACS buffer. Protected from light, the cell suspensions were incubated on ice for 1 hour. Plates were then centrifuged at 1,500 rpm and 4° C. for 3 minutes and washed three times with 200 μl per well of FACS buffer. Finally, cells were resuspended in 150 μl per well of FACS buffer and analyzed using a BD Accuri™ C6 Plus flow cytometer (Becton Dickinson, Germany).
binder,measurement,setting,value
B1,"percent inhibition of LPS-induced release of TNFα from PBMCs from healthy donors (ELISA, antibody 3 µg/ml)",endogenous human iRhom2,73.5%
same,"percent inhibition of LPS-induced release of TNFα from THP-1 cells (ELISA, antibody 3 µg/ml)",endogenous human iRhom2,78.7%
same,"percent inhibition of PMA-induced release of HB-EGF from PBMCs from healthy donors (ELISA, antibody 3 µg/ml)",endogenous human iRhom2,74.8%
same,"percent inhibition of PMA-induced release of HB-EGF from THP-1 cells (ELISA, antibody 3 µg/ml)",endogenous human iRhom2,83%
same,"percent inhibition of PMA-induced release of HB-EGF from U-937 cells (ELISA, antibody 3 µg/ml)",endogenous human iRhom2,99.7%
same,"percent inhibition of PMA-induced release of IL-6R from PBMCs from healthy donors (ELISA, antibody 3 µg/ml)",endogenous human iRhom2,79%
same,"percent inhibition of PMA-induced release of IL-6R from THP-1 cells (ELISA, antibody 3 µg/ml)",endogenous human iRhom2,74%
same,"percent inhibition of PMA-induced release of IL-6R from U-937 cells (ELISA, antibody 3.33 µg/ml)",endogenous human iRhom2,81.7%
same,"percent inhibition of PMA-induced release of TGFα from PC3 cells (ELISA, antibody 10 µg/ml)",endogenous human iRhom2,23.8%
same,"percent inhibition of PMA-induced release of TNFα from U-937 cells (ELISA, antibody 3.33 µg/ml)",endogenous human iRhom2,89%
same,binding result,[1],no binding (tested: 3 µg/ml)
